Test results from patent US20110085970A1 (published 2011).

How the values were obtained:
[1] = molecular target: T1, Recombinant Penta-B7H4 protein with a C-9 tag (human, UniProt Q7Z7D3 25-259); assay: ELISA: anti-mouse Fc coat, monoclonal anti-C9 at 0.6 ug/ml, Penta-B7H4 titrated (varied component), human antibody fixed at 1 ug/ml
T1 construct: also called Penta-O8E; Penta-B7H4-C9; not shown: 'Penta' part and C-9 tag
T1 sequence: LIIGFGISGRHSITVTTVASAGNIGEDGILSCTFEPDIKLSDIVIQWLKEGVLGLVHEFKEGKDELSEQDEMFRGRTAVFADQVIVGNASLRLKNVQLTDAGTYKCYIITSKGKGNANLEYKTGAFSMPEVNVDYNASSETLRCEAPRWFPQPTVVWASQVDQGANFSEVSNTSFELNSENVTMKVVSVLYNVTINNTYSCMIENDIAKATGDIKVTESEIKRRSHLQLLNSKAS

[2] = molecular target: T2, human O8E (B7-H4) expressed on cells (human, UniProt Q7Z7D3 25-282); assay: titration of labelled antibody on O8E-transfected cells (Scatchard set-up), sigmoidal dose response fit; BOTTOM and TOP fixed for incomplete curve
T2 construct: Full length O8E on transfected HEK, CHO and SKOV3 cells, or endogenous on SKBR3 and ZR-75 cells and in human tumour biopsies; also called B7S1; B7x
T2 sequence: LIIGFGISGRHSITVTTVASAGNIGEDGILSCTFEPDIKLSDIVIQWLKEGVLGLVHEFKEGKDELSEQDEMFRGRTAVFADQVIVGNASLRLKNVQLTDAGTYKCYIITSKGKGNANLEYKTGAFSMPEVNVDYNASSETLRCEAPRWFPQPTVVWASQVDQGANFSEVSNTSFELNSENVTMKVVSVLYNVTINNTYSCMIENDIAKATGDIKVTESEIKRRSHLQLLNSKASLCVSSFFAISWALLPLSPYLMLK

[3] = molecular target: T2, human O8E (B7-H4) expressed on cells; assay: titration of labelled antibody on O8E-transfected cells (Scatchard set-up), sigmoidal dose response fit
Method: HEK cells were transfected with full length O8E using standard techniques and grown in RPMI media containing 10% fetal bovine serum (FBS). […] Millipore plates (MAFB NOB) were coated with 1% nonfat dry milk in water and stored a 4° C. overnight. The plates were washed three times with 0.2 ml of binding buffer. Fifty microliters of buffer alone was added to the maximum binding wells (total binding). Twenty-five microliters of buffer alone was added to the control wells (non-specific binding). Varying concentration of ¹²⁵I-anti-O8E antibody was added to all wells in a volume of 25 μl. (In some cases FITC labeled antibodies were used for the titration since unlabeled material was not available, binding may be compromised in these instances.) Varying concentrations of unlabeled antibody at 100 fold excess was added in a volume of 25 μl to control wells and 25 μl of O8E transfected CHO cells (2×10⁶ cells/ml) in binding buffer were added to all wells. The plates were incubated for 2 hours at 200 RPM on a shaker at 4° C. At the completion of the incubation the Millipore plates were washed three times with 0.2 ml of cold wash buffer (24 mM Tris pH 7.2, 500 mM NaCl, 2.7 mM KCl, 2 mM Glucose, 1 mM CaCl₂, 1 mM MgCl₂, 0.1% BSA.). The filters were removed and counted in a gamma counter. […]

B1: 12E1 human monoclonal antibody (anti-O8E / anti-B7-H4) (antibody, V domains shown)
VH: EVQLVESGGGLVQPGRSLRLSCVASGFTFDDYAMHWVRQAPGKGLEWVSGISWNSGSIGYADSVKGRFTISRDNAKNSLYLQMNSLRAEDTALYYCTKALYGSGSSDFYYYGMDVWGQGTTVAVSS
VL: EIVLTQSPATLSLSPGERATLSCRASQSVSSYLAWYQQKPGQAPRLLIYDASNRATGIPARFSGSGSGTDFTLTISSLEPEDFAVYYCQQRRTFGQGTKVEIK
notes: Hybridoma-derived fully human IgG with a kappa light chain (VK L6/JK1); also called 12E1.G9
In the case of B1, the “EC50 (read off the curve)” value [1] is reported as about 50 ng/mL and the EC50 [2] is reported as about 19.8 nM.

B2: 13D12 human monoclonal antibody (anti-O8E / anti-B7-H4) (antibody, V domains shown)
VH: QVQLQQWGAGLLKPSETLSLTCAVYGGSFSGYYWSWIRQPPGKGLEWIGKINHSGSTNYNPSLKSRVTISVDTSKNQFSLKLNSVTAADTAVYYCARELRYFENYYYGMDVWGQGTTVTVSS
VL: not shown
notes: Hybridoma-derived fully human IgG with a kappa light chain (VK A27); also called 13D12.G10
B2 was tested, and the EC50 [3] was 0.746 nM.

B3: 1G11 human monoclonal antibody (anti-O8E / anti-B7-H4) (antibody, V domains shown)
VH: QVQLQQWGAGLLKPSETLSLTCAVYGGSFSDYFWTWIRQPPGKGLEWIGEINHSGTTNYNPSLKSRVTISADTSKNQFSLRLSSVTAADTAVYYCARLSSWSNWAFEYWGQGTLVTVSS
VL: EIVLTQFPGTLSLSPGERATLSCRASQSVSSTYLAWYQQKPGQAPRVLIYGASRRATGIPDRFSGSGSGTDFTLTISRLEPEDFAVYYCQQYGSSPLTFGGGTKVEIK
notes: Hybridoma-derived fully human IgG with a kappa light chain (VK A27); also called 1G11.H11-FITC; 1G11.H1
Binder B3 has an EC50 [3] of 1.69 nM.
